These results are taken from paper PMC3438196.

The chains are these.
B1: Apobec3G-GFP MAPPIT bait (pCEL-Apobec3G-GFP) [human] / Apobec3G MAPPIT prey (pMG2-Apobec3G) [human] (parent)
chain 1: MKPHFRNTVERMYRDTFSYNFYNRPILSRRNTVWLCYEVKTKGPSRPPLDAKIFRGQVYSELKYHPEMRFFHWFSKWRKLHRDQEYEVTWYISWSPCTKCTRDMATFLAEDPKVTLTIFVARLYYFWDPDYQEALRSLCQKRDGPRATMKIMNYDEFQHCWSKFVYSQRELFEPWNNLPKYYILLHIMLGEILRHSMDPPTFTFNFNNEPWVRGRHETYLCYEVERMHNDTWVLLNQRRGFLCNQAPHKHGFLEGRHAELCFLDVIPFWKLDLDQDYRVTCFTSWSPCFSCAQEMAKFISKNKHVSLCIFTARIYDDQGRCQEGLRTLAEAGAKISIMTYSEFKHCWDTFVDHQGCPFQPWDGLDEHSQDLSGRLRAILQNQEN
chain 2: B1 chain 1

This assay covers variants of B1. Briefly: MAPPIT. Particulars: with Apobec3G MAPPIT prey (pMG2-Apobec3G) [human].
Consider chain 1 W94R, for which the percent of parent is 14 % of WT. Regarding chain 1 W175R, the percent of parent was 28 % of WT. For the variant chain 1 K63R, the percent of parent was 5 % of WT. As to chain 1 R30L, the percent of parent was 10 % of WT. The value for chain 1 K270E was 54 % of WT. As to chain 1 R24G, the percent of parent is 5 % of WT. For chain 1 Y222N, the percent of parent is 7 % of WT. The value for chain 1 R78W was 18 % of WT. The value for chain 1 D128G was 47 % of WT; that for chain 1 E191V was 40 % of WT; that for chain 1 W269G was 68 % of WT.
